Test results as given in PMC4660213, “Identification and characterization of multiple rubisco activases in chemoautotrophic bacteria” (Nature Communications, 2015).

B1: Rhodobacter sphaeroides form I rubisco large subunit (natural protein, UniProt P27997 1-486, looked up)
chain: MDTKTTEIKGKERYKAGVLKYAQMGYWDGDYVPKDTDVLALFRITPQEGVDPVEAAAAVAGESSTATWTVVWTDRLTACDSYRAKAYRVEPVPGTPGQYFCYVAYDLILFEEGSIANLTASIIGNVFSFKPLKAARLEDMRFPVAYVKTYKGPPTGIVGERERLDKFGKPLLGATTKPKLGLSGKNYGRVVYEGLKGGLDFMKDDENINSQPFMHWRDRFLYVMEAVNLASAQTGEVKGHYLNITAGTMEEMYRRAEFAKSLGSVIVMVDLIIGYTAIQSISEWCRQNDMILHMHRAGHGTYTRQKNHGISFRVIAKWLRLAGVDHLHCGTAVGKLEGDPLTVQGYYNVCREPFNTVDLPRGIFFEQDWADLRKVMPVASGGIHAGQMHQLLSLFGDDVVLQFGGGTIGHPMGIQAGATANRVALEAMVLARNEGRNIDVEGPEILRAAAKWCKPLEAALDTWGNITFNYTSTDTSDFVPTASVAM
notes: form I rubisco large subunit of Rhodobacter sphaeroides; also called large subunit of RsLS
B2: Acidithiobacillus ferrooxidans CbbQ1 (natural protein, UniProt B7JA26 1-267, looked up)
chain: MNDQLTEYRIKKAPYYRATGDETELYEAAYSVRMPMMLKGPTGCGKTRFVEYMAYKLGKPLITVACNEDMTASDLVGRFLLDPQGTRWQDGPLTLAARLGAICYLDEVVEARQDTTVVIHPLTDNRRVLPLEKKGELVQAHPDFQLVISYNPGYQSLMKDLKQSTKQRFGALDFNYPDHEIEAEIVSHETGVNKEVADKLVSIAERARNLKGHGLDEGISTRMLVYAGSLINKGVEAKAACRVTLVRPITDDPDMRDALDAAVTTYF
notes: MoxR-type AAA+ protein CbbQ1 of Acidithiobacillus ferrooxidans ATCC 23270, locus AFE_3053; native N terminus after cleavage of His6-ubiquitin; six copies in the Q1O1 complex; alone it eluted in the void volume (likely soluble aggregates); also called AfQ1; AfCbbQ1; source: E. coli, co-expressed with CbbO1, co-purified (Ni-NTA, ubiquitin cleaved, MonoQ, Superdex 200); not shown: His6, N-terminal, …
B3: Acidithiobacillus ferrooxidans CbbQ2 (natural protein, UniProt B7J5E4 1-272, looked up)
chain: MTATDSSILNQYLVGKEPFYQPQHDEVALFEAAYRKRLPVMVKGPTGCGKSRFVEFMAWRLGKPLVTVACNEDMTAADLVGRWLLDKDGTRWQDGPLTVAARYGAICYLDEIVEARQDTTVVIHPLTDHRRTLPLDKKGELIRAHPDFQLVISYNPGYQSLMKDLKQSTKQRFTGFEFDYPNAELEAGILVQETGVAPSIAAQLVTVAATARRLKGHGLDEGISTRLLVYAAMLMDDGVAPRAACRMALVQPITDDADIRATLEHAIDMTFA
notes: MoxR-type AAA+ protein CbbQ2 of Acidithiobacillus ferrooxidans ATCC 23270, locus AFE_2156; native N terminus after cleavage of His6-ubiquitin; also called AfQ2; AfCbbQ2; not shown: His6, N-terminal, cleaved; ubiquitin, N-terminal, cleaved

What was measured:
[1] = biological target: the molecule itself; experiment: SEC + other: glycerol gradient sedimentation; combined Stokes radius/sedimentation analysis: Stokes radius from gel filtration, Svedberg coefficient from 5–30% glycerol gradients in buffer A (1 mg/ml, 35,000 r.p.m., 16 h, 4 °C); M=4,205 (SRs)
[2] = biological target: B1; experiment: as above; settings: both partners purified
[3] = biological target: B3; experiment: as above; settings: both partners purified
[4] = biological target: B3; experiment: quantitative densitometry of SDS-PAGE; Coomassie-stained SDS–PAGE of the purified complexes (4 µg per lane), assuming equal binding of the dye; settings: both partners purified
[5] = biological target: B2; experiment: SEC + other: glycerol gradient sedimentation; combined Stokes radius/sedimentation analysis: Stokes radius from gel filtration, Svedberg coefficient from 5–30% glycerol gradients in buffer A (1 mg/ml, 35,000 r.p.m., 16 h, 4 °C); M=4,205 (SRs); settings: both partners purified
[6] = biological target: B2; experiment: quantitative densitometry of SDS-PAGE; Coomassie-stained SDS–PAGE of the purified complexes (4 µg per lane), assuming equal binding of the dye; settings: both partners purified

| Binder | stoichiometry N [1] | other results |
| --- | --- | --- |
| B1 | 8 large subunits in the complex |  |
| Acidithiobacillus ferrooxidans form II rubisco (enzyme, UniProt B7J5E3 1-459, looked up, form II rubisco (CbbM) of Acidithiobacillus ferrooxidans ATCC 23270, locus AFE_2155; native N terminus after cleavage of His6-ubiquitin; used as ECM, ER and ECMC complexes in the enzymatic assays; also called AfM; CbbM; source: E. coli BL21 (DE3), purified (Ni-NTA, ubiquitin cleaved, Mono Q, Superdex 200); not shown: His6, N-terminal, cleaved; ubiquitin, N-terminal, cleaved) MDQSNRYADLSLKEEDLISGGKHILVAYKMKPKAGHGYLEAAAHFAAESSTGTNVEVSTTDDFTKGVDALVYHIDEATEDMRIAFPLELFDRNVTDGRMMIVSFLTLVIGNNQGMGDIEHGQMIDFFMPPRAIQLFDGPAKDISDLWRILGRPIKDGGYIAGTIIKPKLGLRPEPFAAAAYQFWLGGDFIKNDEPQGNQVFAPVKKTIPLVYDAMKRAMDETGEAKLFSMNITADDHYEMCARADFALETFGPDADKLAFLVDGFVGGPGMITTARRQYAGQYLHYHRAGHGMITSPSAKRGYTAFVLAKMSRLQGASGIHVGTMGYGKMEGGADDRNIAYMIERDSCDGPVYHQEWYGMKPTTPIISGGMNALRLPGFFENLGHGNVINTAGGGSYGHIDSPAAGAVSLRQAYECWKAGADPIEYAREHKEFARAFESFPGDADKLYPGWREKLGVHR | 6 subunits in the oligomer |  |
| Rhodobacter sphaeroides form I rubisco small subunit (natural protein, UniProt P27998 1-129, looked up, form I rubisco small subunit of Rhodobacter sphaeroides; also called small subunit of RsLS) MRITQGCFSFLPDLTDEQISAQVDYCLGRGWAVSLEHTDDPHPRNTYWEMWGMPMFDLRDPKGVMIELDECRKAWPGRYIRINAFDSTRGFETVTMSFIVNRPEVEPSLRMERTEVDGRSIRYTHSIVR |  | binding result [2]: binds |
| B2 | 6 CbbQ subunits in the complex |  |
| Acidithiobacillus ferrooxidans CbbO2 (natural protein, UniProt B7J5E5 1-759, looked up, VWA-domain protein CbbO2 of Acidithiobacillus ferrooxidans ATCC 23270, locus AFE_2157; insoluble unless co-expressed with CbbQ2; also called AfCbbO2; source: E. coli, co-expressed with CbbQ2, co-purified (Ni-NTA, ubiquitin cleaved, MonoQ, Superdex 200; 5 mM MgCl2 and 5% glycerol in buffers); not shown: His6, N-terminal, cleaved; ubiquitin, N-terminal, cleaved) MTDHPRDASLPSRLAAYRKQLDCRFPRVGEVFSDCIAKASARLGPAGVSAYVDAARALCKLGRGEEPVLIFLEEWPDVGAALGDGTLEMVMQMVQFMQRTPNGNAIGGFLQSLAPVSRALLSREQLGHYLNTLRDMMERTTGSIHGHHQTHPSPGLPELLRQAPTLLQSLTVDGLRNWVDYGVRNYLHHPERQKDFFSLQSADSRAVLQRERHGTLLADVERKLDLYLRGLWQDSEVLVPYSTAFATLRTPQPYYDALGMRLPDVLDDLPGIGALDHYRAILAHMVGHRRWSTPQIADNWSPFQRLAVEFFEDARIDTLLIRTYPGLRTLFLALHPKPGEDACDPETTSCLRHRLAMLSRALLDPEHGYRNPVLHDFVDRFHGELAGGNADTATMARLALDYVTTTRRQSDQFAKVHFADTEISYRDDNRGLWRFIESGDEEEAFDAEQRKAPDLETQGLPPRHYPEWDYQSQSYRPDWVSLYEGLHASAPAATIDQLLLKHAALAKHLKRLLDLLKPQDKVRIRYQEEGSELDLDVALRSWIDFKSGSTPDPRINMSHRTAGRDIAVTLLLDLSESLNESVKTGGGDGQTVLQLSQEAVSLLAWSIEQLGDPLAIAGFNSNTRHEVRYQHIKGFSEPWGDVVKGRLAALQAGYSTRMGAAMRHAGHYLATRKADKKLMLVLTDGRPSDVDVQDDRLLIEDARQAVNELDRDGIFTYCISLDPHADAYVADIFGRQYTVIDHIARLPEKLPELFIALTR |  | stoichiometry N [3]: 1 CbbO subunit per CbbQ hexamer; stoichiometry N [4]: 1 CbbO subunit per 6 CbbQ subunits |
| Acidithiobacillus ferrooxidans form I rubisco large subunit (natural protein, UniProt B7JA24 1-473, looked up, form I rubisco large subunit (CbbL) of Acidithiobacillus ferrooxidans ATCC 23270, locus AFE_3051; gene amplified from genomic DNA; cbbL and cbbS were amplified together and cloned between NdeI and HindIII of pET30b; no tag is mentioned; also called AfL; CbbL; source: E. coli BL21, co-expressed with the small subunit from pET30bAfcbbLS, purified (Source30Q, Superdex 200)) MAVKTYNAGVKDYRNTYWEPDYSVKDTDILAVFKITPQAGVDREEAAAAVAAESSTGTWTTVWTDLLTDLDYYKGRAYRIEDVPGDDTCFYAFIAYPIDLFEEGSVVNVFTSLVGNVFGFKAVRALRLEDVRFPIAYVKTCGGPPHGIQVERDIMNKYGRPLLGCTIKPKLGLSAKNYGRACYEGLRGGLDFTKDDENVNSQPFMRWRQRFDFVMEAIQKAEAETGERKGHYLNVTAPTPEEMYKRAEYAKEIGAPIIMHDYITGGFCANTGLANWCRDNGMLLHIHRAMHAVLDRNPHHGIHFRVLTKILRLSGGDHLHSGTVVGKLEGDREATLGWIDIMRDRFIKEDRSRGIFFDQDWGSMPGVMPVASGGIHVWHMPALVTIFGDDSVLQFGGGTLGHPWGNAAGAAANRVALEACVEARNRGVAIEKEGKAVLTEAAKHSPELKIAMETWKEIKFEFDTVDKLDVAHK | 8 large subunits in the complex |  |
| B3 | 6 subunits in the oligomer |  |
| Rhodopseudomonas palustris form II rubisco (enzyme, UniProt Q6N0W9 1-461, looked up, form II rubisco (CbbM) of Rhodopseudomonas palustris; gene synthesized by Genscript, cloned in pHue; also called RpM; source: E. coli BL21 (DE3), purified (Ni-NTA, ubiquitin cleaved, Mono Q, Superdex 200); not shown: His6, N-terminal, cleaved; ubiquitin, N-terminal, cleaved) MDQSNRYANLNLKESELIAGGRHVLCAYIMKPKAGFGNFIQTAAHFAAESSTGTNVEVSTTDDFTRGVDALVYEVDEANSLMKIAYPIELFDRNVIDGRAMIASFLTLTIGNNQGMGDVEYAKMYDFYVPPAYLKLFDGPSTTIKDLWRVLGRPVINGGFIVGTIIKPKLGLRPQPFANACYDFWLGGDFIKNDEPQGNQVFAPFKDTVRAVADAMRRAQDKTGEAKLFSFNITADDHYEMLARGEFILETFADNADHIAFLVDGYVAGPAAVTTARRAFPKQYLHYHRAGHGAVTSPQSKRGYTAFVLSKMARLQGASGIHTGTMGFGKMEGEAADRAIAYMITEDAADGPYFHQEWLGMNPTTPIISGGMNALRMPGFFDNLGHSNLIMTAGGGAFGHVDGGAAGAKSLRQAEQCWKQGADPVEFAKDHREFARAFESFPQDADKLYPNWRAKLKPQAA | 6 subunits in the oligomer |  |
| Acidithiobacillus ferrooxidans CbbO1 (natural protein, UniProt B7JA27 1-772, looked up, VWA-domain protein CbbO1 of Acidithiobacillus ferrooxidans ATCC 23270, locus AFE_3054; insoluble unless co-expressed with CbbQ1; also called AfCbbO1; source: E. coli, co-expressed with CbbQ1, co-purified (Ni-NTA, ubiquitin cleaved, MonoQ, Superdex 200); not shown: His6, N-terminal, cleaved; ubiquitin, N-terminal, cleaved) MKHLEDYAELLQAFGEGSQAILQSKWQEATRVFSPSGLDQYLDGAMGLRSLGKGDGLVSSYLDAAPHIAREVGEDAVWELVGAVMKMASKTSGAVLEAVVSTSPTAANRLADPELFKSYLGMLDRLLAQVPRALRPMLENIDQLFGYLTLGGLRRWALWGAHAHRTDFEAQIAYFSLKSPEALAMLQQERKGTLFVDIQRRLRMYLRALWGRDFFLRPTSGDFEDREGYRPYIEGIFIHLPDAYDDWEDIDGMTRYRAVAVHAAAHVAYMRKAISAEALTPEQMAVIGLFEDARVEALAMRAFPGIRAIWLPFHTAVAGPVASMGHLFSRLARAIIDPDYVDDNAWVQEGRRVFMEAEARWDDPQLSWDLGVHLADRLRNQRVSYHARTDIPDILYRDDNRYIWEFEEIDWEHETTILPGAQVRKYVNVMEMVNEVDTELAGDDAQEVWVLQSELFPYEDMGLSYNQMEGKEPVSDPFHYPEWDYQIQASRPLWATVLERRPRLGDARVVREVLEKYKPVSSRLRYLIEALQPQGVQRLRKQEDGDEIDVEAAVRALVDIRMGLAPDTRIHMRSLRKVRDLGVLVLMDLSESTNDKVRGSEDSILQLTRDATSLLADAMNRIGDPFAIHGFHSDGRHDVAYYRFKDFDEAYSEEAMGRIAGMTGKFSTRMGAALRHAGHHLRHQRQSRKLLLVITDGEPADIDVRDPQYLRHDARRAVEDLGRDGVITYCLSLDPHADEYVSRIFGARNYQVIDHVERLPERLPILYAGLTR |  | stoichiometry N [5]: 1 CbbO subunit per CbbQ hexamer; stoichiometry N [6]: 1 CbbO subunit per 6 CbbQ subunits |
